# Measured values taken from doi:10.1101/2021.07.07.451439.
# What was measured:
# TRIM27 = TRIM27 (UniProt P14373); assay: GFP-NanoTrap IP of GFP-USP7, immunoblot; details: reference: wild type GFP-USP7; sites S18
# TCEAL4 = TCEAL4 (UniProt Q96EI5); assay: GFP-NanoTrap IP, blot of lower MW TCEAL4; details: reference: wild type GFP-USP7; sites S18
substance,measurement,setting,value
USP7 (from UniProt Q93009) S18A,binding against the reference,TRIM27,stronger
same,binding against the reference,TCEAL4,stronger
